# Laboratory results as given in patent publication US20260242419A1, “A CYCLIC PEPTIDE FOR TRAPPING INTERLEUKIN-1 BETA” (Merck Sharp & Dohme LLC, priority 2023, published 2026).
# Starred links: 1 amine or outer side, 2 acyl side, 3 side chain; linkers in the order of their positions; H or OH if unused. Non-standard residues stand in square brackets, D forms with d. 3Pal4Ph4CO2H = 4-[5-[(2S)-2-amino-2-carboxy-ethyl]-2-pyridyl]benzoic acid, O=C([C@H](Cc1ccc(-c2ccc(C(=O)[*:3])cc2)nc1)N[*:1])[*:2]; TyrEtNAc = (2S)-3-[4-(2-acetamidoethoxy)phenyl]-2-amino-propanoic acid, CC(=O)NCCOc1ccc(C[C@H](N[*:1])C(=O)[*:2])cc1; dProc3Bn = (2R,3S)-3-benzylpyrrolidine-2-carboxylic acid, O=C([C@H]1[C@@H](Cc2ccccc2)CCN1[*:1])[*:2]; 3PyridaAla = (2S)-2-amino-3-pyridazin-3-yl-propanoic acid, O=C([C@H](Cc1cccnn1)N[*:1])[*:2]; Phe(4-(cis-4-COOH-cHex)) = N[C@@H](Cc1ccc([C@H]2CC[C@@H](C(=O)O)CC2)cc1)C(=O)O; dPro(4R-(4-pyridylmethyl)) = O=C(O)[C@H]1C[C@@H](Cc2ccncc2)CN1; Trp(βS-Me,4-F) = C[C@@H](c1c[nH]c2cccc(F)c12)[C@H](N)C(=O)O; Bip(4'-COOH) = N[C@@H](Cc1ccc(-c2ccc(C(=O)O)cc2)cc1)C(=O)O; Ala(1-bicyclo(1.1.1)pentyl) = N[C@@H](CC12CC(C1)C2)C(=O)O; dPro(4R-Bzl(4-F)) = O=C(O)[C@H]1C[C@@H](Cc2ccc(F)cc2)CN1; Ala(pyrimidin-5-yl) = N[C@@H](Cc1cncnc1)C(=O)O; Phe(4-COOH) = N[C@@H](Cc1ccc(C(=O)O)cc1)C(=O)O; Ala(2-pyrazinyl) = N[C@@H](Cc1cnccn1)C(=O)O; Pro(cis-4-F) = O=C(O)[C@@H]1C[C@H](F)CN1; 4Pal = N[C@@H](Cc1ccncc1)C(=O)O; αMeK = C[C@](N)(CCCCN)C(=O)O; αMeS = C[C@](N)(CO)C(=O)O; Orn = NCCC[C@H](N)C(=O)O; Api = NC1(C(=O)O)CCNCC1; Dab = NCC[C@H](N)C(=O)O; Dap = NC[C@H](N)C(=O)O; Aib = CC(C)(N)C(=O)O
# B1: SEQ ID NO: 104 (peptide)
# peptide: cyclo([Phe(4-(cis-4-COOH-cHex))][Ala(1-bicyclo(1.1.1)pentyl)][Phe(4-COOH)]G[Pro(cis-4-F)][Trp(βS-Me,4-F)][αMeS]EW[αMeK][Ala(pyrimidin-5-yl)]Q[Dab]G[dPro(4R-Bzl(4-F))])
# SMILES: C[C@@H](c1c[nH]c2cccc(F)c12)[C@@H]1NC(=O)[C@@H]2C[C@H](F)CN2C(=O)CNC(=O)[C@H](Cc2ccc(C(=O)O)cc2)NC(=O)[C@H](CC23CC(C2)C3)NC(=O)[C@H](Cc2ccc([C@H]3CC[C@@H](C(=O)O)CC3)cc2)NC(=O)[C@H]2C[C@@H](Cc3ccc(F)cc3)CN2C(=O)CNC(=O)[C@H](CCN)NC(=O)[C@H](CCC(N)=O)NC(=O)[C@H](Cc2cncnc2)NC(=O)[C@](C)(CCCCN)NC(=O)[C@H](Cc2c[nH]c3ccccc23)NC(=O)[C@H](CCC(=O)O)NC(=O)[C@](C)(CO)NC1=O
# B2: SEQ ID NO: 1 (peptide)
# peptide: cyclo([Bip(4'-COOH)][4Pal][Phe(4-COOH)]G[Pro(cis-4-F)][Trp(βS-Me,4-F)][Aib]EW[Aib]FQSG[dProc3Bn])
# SMILES: C[C@@H](c1c[nH]c2cccc(F)c12)[C@@H]1NC(=O)[C@@H]2C[C@H](F)CN2C(=O)CNC(=O)[C@H](Cc2ccc(C(=O)O)cc2)NC(=O)[C@H](Cc2ccncc2)NC(=O)[C@H](Cc2ccc(-c3ccc(C(=O)O)cc3)cc2)NC(=O)[C@H]2[C@@H](Cc3ccccc3)CCN2C(=O)CNC(=O)[C@H](CO)NC(=O)[C@H](CCC(N)=O)NC(=O)[C@H](Cc2ccccc2)NC(=O)C(C)(C)NC(=O)[C@H](Cc2c[nH]c3ccccc23)NC(=O)[C@H](CCC(=O)O)NC(=O)C(C)(C)NC1=O
# B3: SEQ ID NO: 105 (peptide)
# peptide: cyclo([Phe(4-(cis-4-COOH-cHex))][Ala(1-bicyclo(1.1.1)pentyl)][Phe(4-COOH)]G[Pro(cis-4-F)][Trp(βS-Me,4-F)][Aib]EW[Api]SQ[Dab]G[dPro(4R-Bzl(4-F))])
# SMILES: C[C@@H](c1c[nH]c2cccc(F)c12)[C@@H]1NC(=O)[C@@H]2C[C@H](F)CN2C(=O)CNC(=O)[C@H](Cc2ccc(C(=O)O)cc2)NC(=O)[C@H](CC23CC(C2)C3)NC(=O)[C@H](Cc2ccc([C@H]3CC[C@@H](C(=O)O)CC3)cc2)NC(=O)[C@H]2C[C@@H](Cc3ccc(F)cc3)CN2C(=O)CNC(=O)[C@H](CCN)NC(=O)[C@H](CCC(N)=O)NC(=O)[C@H](CO)NC(=O)C2(CCNCC2)NC(=O)[C@H](Cc2c[nH]c3ccccc23)NC(=O)[C@H](CCC(=O)O)NC(=O)C(C)(C)NC1=O
# B4: SEQ ID NO: 109 (peptide)
# peptide: cyclo([Bip(4'-COOH)][Ala(1-bicyclo(1.1.1)pentyl)][Phe(4-COOH)]G[Pro(cis-4-F)][Trp(βS-Me,4-F)][Aib]SW[Aib][Ala(pyrimidin-5-yl)]Q[Orn]G[dPro(4R-(4-pyridylmethyl))])
# SMILES: C[C@@H](c1c[nH]c2cccc(F)c12)[C@@H]1NC(=O)[C@@H]2C[C@H](F)CN2C(=O)CNC(=O)[C@H](Cc2ccc(C(=O)O)cc2)NC(=O)[C@H](CC23CC(C2)C3)NC(=O)[C@H](Cc2ccc(-c3ccc(C(=O)O)cc3)cc2)NC(=O)[C@H]2C[C@@H](Cc3ccncc3)CN2C(=O)CNC(=O)[C@H](CCCN)NC(=O)[C@H](CCC(N)=O)NC(=O)[C@H](Cc2cncnc2)NC(=O)C(C)(C)NC(=O)[C@H](Cc2c[nH]c3ccccc23)NC(=O)[C@H](CO)NC(=O)C(C)(C)NC1=O
# B5: SEQ ID NO: 103 (peptide)
# peptide: cyclo([Phe(4-(cis-4-COOH-cHex))][Ala(1-bicyclo(1.1.1)pentyl)][Phe(4-COOH)]G[Pro(cis-4-F)][Trp(βS-Me,4-F)][αMeS]EW[Aib][Ala(pyrimidin-5-yl)]Q[Dab]G[dPro(4R-Bzl(4-F))])
# SMILES: C[C@@H](c1c[nH]c2cccc(F)c12)[C@@H]1NC(=O)[C@@H]2C[C@H](F)CN2C(=O)CNC(=O)[C@H](Cc2ccc(C(=O)O)cc2)NC(=O)[C@H](CC23CC(C2)C3)NC(=O)[C@H](Cc2ccc([C@H]3CC[C@@H](C(=O)O)CC3)cc2)NC(=O)[C@H]2C[C@@H](Cc3ccc(F)cc3)CN2C(=O)CNC(=O)[C@H](CCN)NC(=O)[C@H](CCC(N)=O)NC(=O)[C@H](Cc2cncnc2)NC(=O)C(C)(C)NC(=O)[C@H](Cc2c[nH]c3ccccc23)NC(=O)[C@H](CCC(=O)O)NC(=O)[C@](C)(CO)NC1=O
# B6: SEQ ID NO: 108 (peptide)
# peptide: cyclo([Bip(4'-COOH)][4Pal][Phe(4-COOH)]G[Pro(cis-4-F)][Trp(βS-Me,4-F)][Aib]SW[Aib][Ala(pyrimidin-5-yl)]Q[Orn]G[dPro(4R-(4-pyridylmethyl))])
# SMILES: C[C@@H](c1c[nH]c2cccc(F)c12)[C@@H]1NC(=O)[C@@H]2C[C@H](F)CN2C(=O)CNC(=O)[C@H](Cc2ccc(C(=O)O)cc2)NC(=O)[C@H](Cc2ccncc2)NC(=O)[C@H](Cc2ccc(-c3ccc(C(=O)O)cc3)cc2)NC(=O)[C@H]2C[C@@H](Cc3ccncc3)CN2C(=O)CNC(=O)[C@H](CCCN)NC(=O)[C@H](CCC(N)=O)NC(=O)[C@H](Cc2cncnc2)NC(=O)C(C)(C)NC(=O)[C@H](Cc2c[nH]c3ccccc23)NC(=O)[C@H](CO)NC(=O)C(C)(C)NC1=O
# B7: SEQ ID NO: 106 (peptide)
# peptide: cyclo([Phe(4-(cis-4-COOH-cHex))][Ala(1-bicyclo(1.1.1)pentyl)][Phe(4-COOH)]G[Pro(cis-4-F)][Trp(βS-Me,4-F)][Aib]SW[Aib]SQ[Dab]G[dPro(4R-Bzl(4-F))])
# SMILES: C[C@@H](c1c[nH]c2cccc(F)c12)[C@@H]1NC(=O)[C@@H]2C[C@H](F)CN2C(=O)CNC(=O)[C@H](Cc2ccc(C(=O)O)cc2)NC(=O)[C@H](CC23CC(C2)C3)NC(=O)[C@H](Cc2ccc([C@H]3CC[C@@H](C(=O)O)CC3)cc2)NC(=O)[C@H]2C[C@@H](Cc3ccc(F)cc3)CN2C(=O)CNC(=O)[C@H](CCN)NC(=O)[C@H](CCC(N)=O)NC(=O)[C@H](CO)NC(=O)C(C)(C)NC(=O)[C@H](Cc2c[nH]c3ccccc23)NC(=O)[C@H](CO)NC(=O)C(C)(C)NC1=O
# B8: SEQ ID NO: 100 (peptide)
# peptide: cyclo([3Pal4Ph4CO2H][Ala(1-bicyclo(1.1.1)pentyl)][Phe(4-COOH)]G[Pro(cis-4-F)][Trp(βS-Me,4-F)][Aib]EW[Aib][Dap]Q[Dab]G[dPro(4R-Bzl(4-F))])
# SMILES: C[C@@H](c1c[nH]c2cccc(F)c12)[C@@H]1NC(=O)[C@@H]2C[C@H](F)CN2C(=O)CNC(=O)[C@H](Cc2ccc(C(=O)O)cc2)NC(=O)[C@H](CC23CC(C2)C3)NC(=O)[C@H](Cc2ccc(-c3ccc(C(=O)O)cc3)nc2)NC(=O)[C@H]2C[C@@H](Cc3ccc(F)cc3)CN2C(=O)CNC(=O)[C@H](CCN)NC(=O)[C@H](CCC(N)=O)NC(=O)[C@H](CN)NC(=O)C(C)(C)NC(=O)[C@H](Cc2c[nH]c3ccccc23)NC(=O)[C@H](CCC(=O)O)NC(=O)C(C)(C)NC1=O
# B9: SEQ ID NO: 102 (peptide)
# peptide: cyclo([Bip(4'-COOH)][4Pal][Phe(4-COOH)]G[Pro(cis-4-F)][Trp(βS-Me,4-F)][Aib]EW[Aib][3PyridaAla]Q[Dab]G[dPro(4R-Bzl(4-F))])
# SMILES: C[C@@H](c1c[nH]c2cccc(F)c12)[C@@H]1NC(=O)[C@@H]2C[C@H](F)CN2C(=O)CNC(=O)[C@H](Cc2ccc(C(=O)O)cc2)NC(=O)[C@H](Cc2ccncc2)NC(=O)[C@H](Cc2ccc(-c3ccc(C(=O)O)cc3)cc2)NC(=O)[C@H]2C[C@@H](Cc3ccc(F)cc3)CN2C(=O)CNC(=O)[C@H](CCN)NC(=O)[C@H](CCC(N)=O)NC(=O)[C@H](Cc2cccnn2)NC(=O)C(C)(C)NC(=O)[C@H](Cc2c[nH]c3ccccc23)NC(=O)[C@H](CCC(=O)O)NC(=O)C(C)(C)NC1=O
# B10: SEQ ID NO: 10 (peptide)
# peptide: cyclo([TyrEtNAc][4Pal][Phe(4-COOH)]G[Pro(cis-4-F)][Trp(βS-Me,4-F)][Aib]EW[Aib][Ala(pyrimidin-5-yl)]Q[Dab]G[dPro(4R-Bzl(4-F))])
# SMILES: CC(=O)NCCOc1ccc(C[C@@H]2NC(=O)[C@H]3C[C@@H](Cc4ccc(F)cc4)CN3C(=O)CNC(=O)[C@H](CCN)NC(=O)[C@H](CCC(N)=O)NC(=O)[C@H](Cc3cncnc3)NC(=O)C(C)(C)NC(=O)[C@H](Cc3c[nH]c4ccccc34)NC(=O)[C@H](CCC(=O)O)NC(=O)C(C)(C)NC(=O)[C@H]([C@@H](C)c3c[nH]c4cccc(F)c34)NC(=O)[C@@H]3C[C@H](F)CN3C(=O)CNC(=O)[C@H](Cc3ccc(C(=O)O)cc3)NC(=O)[C@H](Cc3ccncc3)NC2=O)cc1
# B11: SEQ ID NO: 107 (peptide)
# peptide: cyclo([Phe(4-(cis-4-COOH-cHex))][Ala(1-bicyclo(1.1.1)pentyl)][Phe(4-COOH)]G[Pro(cis-4-F)][Trp(βS-Me,4-F)][αMeS]EW[Aib]SQ[Dab]G[dPro(4R-Bzl(4-F))])
# SMILES: C[C@@H](c1c[nH]c2cccc(F)c12)[C@@H]1NC(=O)[C@@H]2C[C@H](F)CN2C(=O)CNC(=O)[C@H](Cc2ccc(C(=O)O)cc2)NC(=O)[C@H](CC23CC(C2)C3)NC(=O)[C@H](Cc2ccc([C@H]3CC[C@@H](C(=O)O)CC3)cc2)NC(=O)[C@H]2C[C@@H](Cc3ccc(F)cc3)CN2C(=O)CNC(=O)[C@H](CCN)NC(=O)[C@H](CCC(N)=O)NC(=O)[C@H](CO)NC(=O)C(C)(C)NC(=O)[C@H](Cc2c[nH]c3ccccc23)NC(=O)[C@H](CCC(=O)O)NC(=O)[C@](C)(CO)NC1=O
# Target: Recombinant human IL-1β (BioLegend 579404) (human, UniProt P01584 117-269)
# Experiment: cell-based or functional assay
row,Binder,MRC5 IC50
1,B1,0.085 nM
2,B2,0.093 nM
3,B3,0.083 nM
4,B4,0.036 nM
5,B5,0.06 nM
6,B6,0.024 nM
7,B7,0.031 nM
8,B8,0.074 nM
9,B9,0.021 nM
10,B10,0.027 nM
11,B11,0.063 nM
12,"cyclo([Bip(4'-COOH)][4Pal][Phe(4-COOH)]G[Pro(cis-4-F)][Trp(βS-Me,4-F)][Aib]EW[Aib][Ala(2-pyrazinyl)]Q[Dab]G[dPro(4R-Bzl(4-F))]) [SEQ ID NO: 101]",0.021 nM
